Laboratory results as given in US20160222130A1 (Astellas, published 2016).

Tests used:
Test in all cases: SPR (Biacore T200); Tie2-Fc captured on anti-human IgG (Fc), Fab at 50 nM; mean of 3
Human Tie2 (1-452)g1-Fc = target: T1, Human Tie2 (1-452)g1-Fc (human, UniProt Q02763 23-452)
T1 construct: range 1-452
Description: (§1) SPR analysis was carried out in order to evaluate the binding activity of the human Tie2 (1-452)-Fc chimera protein and 23 mutant proteins thereof to the fully human 2-16A2-Fab.
(§2) For SPR analysis, Biacore T200 (GE Healthcare) was used. An anti-human IgG (Fc) antibody (Human Antibody Capture Kit, GE Healthcare) was fixed onto a CM5 sensor chip. The human Tie2 (1-452)-Fc chimeric protein and 23 mutant proteins thereof, diluted with HBS-EP (GE Healthcare) at 5 μg/mL, were each allowed for immobilization, and the capture-amount was measured. Thereafter, the fully human 2-16A2-Fab diluted with HBS-EP to 50 nM, the binding amount thereof to the human Tie2 (1-452)-Fc chimeric protein and 23 mutant proteins thereof were measured. Further, by dividing the binding amount with the capture-amount, the binding amount of the antibody in the unit immobilized antigen (hereinafter referred to as a binding ratio) was calculated. The arithmetic mean of three experiments and the relative value of the binding ratio of each mutant proteins when the binding ratio of the human Tie2 (1-452)-Fc chimeric protein was taken as 100% are shown in Table 7.

Human Tie2 (1-452)A3-Fc = target: T2, Human Tie2 (1-452)A3-Fc (human, UniProt Q02763 23-452)
T2 construct: range 1-452
T2 sequence (Q02763 other isoform, or with tags, fused parts or gaps limits assumed, form in doubt): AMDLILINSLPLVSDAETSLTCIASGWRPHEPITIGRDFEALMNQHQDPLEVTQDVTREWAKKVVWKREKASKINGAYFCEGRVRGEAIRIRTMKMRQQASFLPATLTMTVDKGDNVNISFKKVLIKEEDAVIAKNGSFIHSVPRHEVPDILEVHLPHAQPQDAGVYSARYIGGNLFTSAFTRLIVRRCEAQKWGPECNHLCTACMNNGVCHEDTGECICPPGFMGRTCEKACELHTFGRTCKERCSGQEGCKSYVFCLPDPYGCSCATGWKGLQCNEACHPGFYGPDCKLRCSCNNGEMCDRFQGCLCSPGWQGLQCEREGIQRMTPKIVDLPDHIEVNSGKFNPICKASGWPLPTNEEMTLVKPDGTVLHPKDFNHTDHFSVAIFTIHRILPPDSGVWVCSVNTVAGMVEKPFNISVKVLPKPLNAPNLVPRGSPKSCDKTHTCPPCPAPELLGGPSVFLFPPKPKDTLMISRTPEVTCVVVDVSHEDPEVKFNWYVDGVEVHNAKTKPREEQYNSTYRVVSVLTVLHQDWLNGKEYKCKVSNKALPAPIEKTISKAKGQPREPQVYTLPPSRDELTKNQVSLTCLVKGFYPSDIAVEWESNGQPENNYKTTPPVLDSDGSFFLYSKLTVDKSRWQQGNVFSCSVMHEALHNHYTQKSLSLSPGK
Description: as §1, §2

Human Tie2 (1-452)r3-Fc = target: T3, Human Tie2 (1-452)r3-Fc (human, UniProt Q02763 23-452)
T3 construct: range 1-452
T3 sequence (Q02763 other isoform, or with tags, fused parts or gaps limits assumed, form in doubt): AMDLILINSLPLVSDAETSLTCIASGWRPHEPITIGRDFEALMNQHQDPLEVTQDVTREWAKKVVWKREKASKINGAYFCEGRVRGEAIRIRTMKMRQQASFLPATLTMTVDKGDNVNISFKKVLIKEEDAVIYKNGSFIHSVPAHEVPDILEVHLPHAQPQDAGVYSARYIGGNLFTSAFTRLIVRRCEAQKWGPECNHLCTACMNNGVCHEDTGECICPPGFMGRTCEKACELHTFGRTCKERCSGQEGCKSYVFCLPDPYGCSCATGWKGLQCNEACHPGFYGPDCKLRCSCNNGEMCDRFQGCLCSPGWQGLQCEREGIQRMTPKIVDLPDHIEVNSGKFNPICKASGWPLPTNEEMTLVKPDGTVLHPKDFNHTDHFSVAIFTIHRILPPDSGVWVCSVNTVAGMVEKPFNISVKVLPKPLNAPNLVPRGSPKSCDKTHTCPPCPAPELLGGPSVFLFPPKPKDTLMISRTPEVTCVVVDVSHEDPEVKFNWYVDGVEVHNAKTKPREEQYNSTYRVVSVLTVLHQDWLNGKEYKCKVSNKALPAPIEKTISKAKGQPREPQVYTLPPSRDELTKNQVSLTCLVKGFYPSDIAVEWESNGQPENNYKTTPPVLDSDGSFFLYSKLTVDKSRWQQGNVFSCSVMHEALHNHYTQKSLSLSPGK
Description: as §1, §2

T1 sequence (Q02763 other isoform, or with tags, fused parts or gaps limits assumed, form in doubt): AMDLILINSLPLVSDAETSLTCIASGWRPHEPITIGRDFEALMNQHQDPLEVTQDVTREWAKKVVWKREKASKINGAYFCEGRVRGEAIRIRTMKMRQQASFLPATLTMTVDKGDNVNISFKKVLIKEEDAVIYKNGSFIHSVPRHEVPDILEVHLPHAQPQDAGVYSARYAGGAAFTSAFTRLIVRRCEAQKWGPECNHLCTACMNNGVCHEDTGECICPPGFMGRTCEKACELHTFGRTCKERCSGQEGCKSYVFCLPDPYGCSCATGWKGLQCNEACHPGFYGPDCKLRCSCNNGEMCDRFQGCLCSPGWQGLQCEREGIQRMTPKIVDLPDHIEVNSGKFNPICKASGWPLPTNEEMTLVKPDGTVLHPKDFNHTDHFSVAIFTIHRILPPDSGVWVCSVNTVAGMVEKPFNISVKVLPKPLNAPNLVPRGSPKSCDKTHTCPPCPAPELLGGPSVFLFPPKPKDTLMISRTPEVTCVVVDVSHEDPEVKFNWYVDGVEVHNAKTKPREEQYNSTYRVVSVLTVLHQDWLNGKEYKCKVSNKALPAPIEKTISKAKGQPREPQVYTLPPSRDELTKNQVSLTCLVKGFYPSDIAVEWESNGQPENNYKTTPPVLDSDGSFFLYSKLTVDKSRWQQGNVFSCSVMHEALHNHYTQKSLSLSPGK

B1: fully human 2-16A2-Fab (Fab, V domains shown)
VH: EVQLVESGGGLVQPGGSLRLSCAASGFTFDDYAMHWVRQAPGKGLEWVAGISWNSGSIVYADSVKGRFTISRDNSKNTLYLQMNSLRAEDTAVYYCAKDIREQLVEDAFDIWGQGTLVTVSS
VL: DIQMTQSPSSLSASVGDRVTITCRSSQSLLHSHRYNYLDWYQQKPGKAPKLLIYLGSNRASGVPSRFSGSGSGTDFTLTISSVQPEDFATYYCMQTLQTPLTFGQGTKVEIKR
notes: also called Fab of the fully human 2-16A2
Binding ratio (Human Tie2 (1-452)g1-Fc): 0 | Relative value (%) of binding ratio (human Tie2 (1-452)-Fc chimeric protein = 100%) (Human Tie2 (1-452)g1-Fc): 0% | Binding ratio (Human Tie2 (1-452)A3-Fc): 0.17 | Relative value (%) of binding ratio (human Tie2 (1-452)-Fc chimeric protein = 100%) (Human Tie2 (1-452)A3-Fc): 59% | Binding ratio (Human Tie2 (1-452)r3-Fc): 0.34 | Relative value (%) of binding ratio (human Tie2 (1-452)-Fc chimeric protein = 100%) (Human Tie2 (1-452)r3-Fc): 119%
